Experimental data published in patent publication US20250332275A1, “Branched Polypeptide Carrier for Efficient Nucleic Acid Delivery and Its Variants” (SUZHOU HEALIRNA BIOTECHNOLOGY CO., LTD., priority 2022, published 2025).
Ends that are not written are not given here.

Tested on: mRNA
Test: Agarose gel electrophoresis of branched polypeptide mixed with mRNA
Assay type: physicochemical
Details: 1.5% agarose, 190 V, 20 minutes
Protocol: A 1.5% agarose gel was prepared by dissolving agarose in a TBE buffer using a microwave. After adding the sub-green dye, the solution was poured into the gel plate, and a comb was inserted. Polypeptide Sequences 9-12 samples were each mixed with mRNA and then mixed with the sample loading buffer in a 1:1 ratio and set aside after thorough mixing. The gel was loaded with Marker and the samples, then subjected to electrophoresis at 190 V for 20 minutes, and images were captured using a gel imaging system.

[1] = polypeptide with mRNA at a 1:1 mass ratio
[2] = polypeptide with mRNA at a 1:2 mass ratio

Substance	retention of complex in sample well (mRNA encapsulation, FIG. 7) [1]	retention of complex in sample well (mRNA encapsulation, FIG. 7) [2]
K(LAALAALAALAALAA)KK(KSKKSKKSKC)KK(LAALAALAALAALAA)KK(KSKKSKKSKC)KK(LAALAALAALAALAA) (chain 1 KKKKKKKKK; chain 2 AALAALAALAALAAL; chain 3 CKSKKSKKSK; also: branched: C-termini of three chain 2 copies amide-linked to side chains of Lys1, Lys5, Lys9 of chain 1, C-termini of two chain 3 copies amide-linked to side chains of Lys3, Lys7 of chain 1) [Polypeptide Sequence 12]	remained within the sample wells	remained within the sample wells
K(LAALAALAALAALAAC)KK(KDKDKDKDKDKD)KK(KDKDKDKDKDKD)KK(LAALAALAALAALAAC) (chain 1 KKKKKKK; chain 2 CAALAALAALAALAAL; chain 3 DKDKDKDKDKDK; also: branched: C-termini of two chain 2 copies amide-linked to side chains of Lys1, Lys7 of chain 1, C-termini of two chain 3 copies amide-linked to side chains of Lys3, Lys5 of chain 1) [Polypeptide Sequence 11]	remained within the sample wells	remained within the sample wells
K(LAALAALAALAALAALAALAAC)KK(KSKKSKKSKKSKKSK)KK(LAALAALAALAALAALAALAAC) (chain 1 KKKKK; chain 2 CAALAALAALAALAALAALAAL; also: branched: C-termini of two chain 2 copies amide-linked to side chains of Lys1, Lys5 of chain 1, C-terminus of chain 3 amide-linked to side chain of Lys3 of chain 1) [Polypeptide Sequence 10]	remained within the sample wells	remained within the sample wells
K(LAALAALAALAALAALAALAAC)KKKK(LAALAALAALAALAALAALAAC) (chain 1 KKKKK; chain 2 CAALAALAALAALAALAALAAL; also: branched: C-termini of two chain 2 copies amide-linked to side chains of Lys1, Lys5 of chain 1) [Polypeptide Sequence 9]	remained within the sample wells	remained within the sample wells
